Laboratory results: patent US20090022687A1, “Novel Pharmaceuticals That Use Anti-HLA Antibodies” (Chugai Seiyaku Kabushiki Kaisha, priority 2005, published 2009)

How the values were obtained:
Type in all cases: binding, human
[1] = system: HLA class I on A549 cells; assay: Cell surface expression analysis of HLA class I by flow cytometry; settings: A549, lung adenocarcinoma cells; FITC-labeled mAb
Protocol: (§1) Reactivity of 2D7 mAb in tumor cell lines and myeloma cells derived from multiple myeloma patients were assessed by flow cytometry.
(§2) The tumor cell lines used were prepared as follows. The myeloma cell line RPMI 8226, B lymphoblastic cell lines (IM-9, Raji, H S-Sultan, and Daudi), the T lymphoblastic cell line CEM, the chronic myeloid leukemia cell line K562, the lung adenocarcinoma cell line A549, the colon adenocarcinoma cell line COLO 201, and the gastric adenocarcinoma cell line MKN-1 were obtained from the Health Science Resources Bank (Osaka, Japan). The myeloma cell line U266-B1, the B lymphoblastic cell line ARH-77, the T-lymphoblastic cell line Jurkat the breast cancer cell line MCF-7, the hepatocellular carcinoma HepG2, the clear cell renal cell carcinoma Caki-2, and the malignant melanoma MeWo were obtained from the American Type Culture Collection (Manassas, Va.). The EBV-transformed B-cell line YN was a gift from Dr. Yasuhiko Nishioka (The University of Tokushima). These cell lines were cultured in an RPM-1640 medium (Sigma-Aldrich, St. Louis, Mo.) supplemented with 10% fetal calf serum (Gibco BRL, Grand Island, N.Y.) and penicillin (100 U/mL) under a humidified atmosphere of 5% CO2 at 37° C.
(§3) Cell surface expression analysis of HLA class I by flow cytometry was performed as follows using FITC-labeled 2D7 mAb or FITC-labeled anti-HLA-ABC common region mAb (Chemicon, San Diego, Calif.). The cells (5×10^5 cells) were washed twice with PBS, and then incubated on ice for 40 minutes with FITC-labeled 2D7 mAb or FITC-labeled anti-HLA-ABC common region mAb. MM patient-derived BMMCs were incubated on ice for 15 minutes with 2% γ globulin diluted in PBS, and stained with FITC-labeled 2D7 mAb and PE-labeled anti-CD38 mAb (BD Bioscience, San Jose, Calif.) for myeloma cell gating. Next, the cells were washed twice with PBS, and analyzed using an EPICS XL flow cytometer (Beckman Coulter, Japan). In several experiments, the cells were stimulated for 48 hours with IFNα or IFNγ prior to HLA class I expression analysis. HLA class I expression levels were evaluated as GeoMFI using the CellQuest software (BID Biosciences).

[2] = system: HLA class I on ARH77 cells; assay: as above; settings: ARH77, B-lymphoblastic cells; FITC-labeled mAb
Protocol: as §1, §2, §3

[3] = system: HLA class I on Caki-2 cells; assay: as above; settings: Caki-2, clear cell renal cell carcinoma; FITC-labeled mAb
Protocol: as §1, §2, §3

[4] = system: HLA class I on Daudi cells; assay: as above; settings: B-lymphoblastic cells, FITC-labeled mAb
Protocol: as §1, §2, §3

[5] = system: HLA class I on HS-Sultan cells; assay: as above; settings: B-lymphoblastic cells, FITC-labeled mAb
Protocol: as §1, §2, §3

[6] = system: HLA class I on HepG2 cells; assay: as above; settings: HepG2, hepatocellular carcinoma; FITC-labeled mAb
Protocol: as §1, §2, §3

[7] = system: HLA class I on Jurkat cells; assay: as above; settings: T-lymphoblastic cells, FITC-labeled mAb
Protocol: as §1, §2, §3

[8] = system: HLA class I on MCF-7 cells; assay: as above; settings: MCF-7, breast cancer cells; FITC-labeled mAb
Protocol: as §1, §2, §3

[9] = system: HLA class I on MeWo cells; assay: as above; settings: malignant melanoma, FITC-labeled mAb
Protocol: as §1, §2, §3

[10] = system: HLA class I on RPMI 8226 cells; assay: as above; settings: RPMI 8226, myeloma cells; FITC-labeled mAb
Protocol: as §1, §2, §3

[11] = system: HLA class I on U266 cells; assay: as above; settings: U266, myeloma cells; FITC-labeled mAb
Protocol: as §1, §2, §3

HLA class I on YN cells = assay: as above; settings: EBV-transformed B-cells, FITC-labeled mAb
Protocol: as §1, §2, §3

HLA-A on lymphocytes = assay: HLA-A expression in BMMCs of MM patients (flow cytometry, FITC-labeled 2D7 mAb); settings: BM samples of 22 MM patients, mean±SD
Protocol: (§4) After cell gating (R1: CD38-positive MM cells; R2: myeloid cells; and R3: lymphocytes), each cell population was evaluated for HLA-A expression. (B) BMMCs derived from 22 MM patients were analyzed for HLA-A expression.
(§5) Patients' MM cells were prepared as follows. First clinical disease stage classification and diagnosis of MM patients were performed according to the Durie and Salmon classification (Durie, B. CT, and S. E. Salmon. 1975. “A clinical staging system for multiple myeloma. Correlation of measured myeloma cell mass with presenting clinical features, response to treatment, and survival,” Cancer, 36:842-854). Bone marrow samples were collected from patients after obtaining informed consent upon approval by the ethics committee of The University of Tokushima. The bone marrow mononuclear cells (BMMCs) were separated by Ficoll-Hypaque (density of 1.077) centrifugation. Patient-derived MM cells were further purified from BMMCs using CD138 microbeads (Miltenyi Biotec, Auburn, Calif.).
as §3, with “In several experiments, the cells were stimulated for 48 hours with IFNα or IFNγ prior to HLA class I expression analysis.” left out
(§6) Next, HLA-A expression in BMMCs of MM patients was examined. […] After gating the cells according to their side-scattered light profile and CD38 expression, each of the cell populations comprising myeloma cells, myeloid cells, and lymphocytes was analyzed for HLA-A expression. […]

HLA-A on myeloid cells = assay: as above; settings: BM samples of 22 MM patients, mean±SD
Protocol: as §4, §5
as §3, with “In several experiments, the cells were stimulated for 48 hours with IFNα or IFNγ prior to HLA class I expression analysis.” left out
as §6

HLA-A on myeloma cells = assay: as above; settings: BM samples of 22 MM patients, mean±SD
Protocol: as §4, §5
as §3, with “In several experiments, the cells were stimulated for 48 hours with IFNα or IFNγ prior to HLA class I expression analysis.” left out
as §6

B1: 2D7: monoclonal antibody obtained by immunizing human myeloma cells; recognizes HLA class I (HLA-A) (antibody, V domains shown)
VH: QVQLQQSGPELVKPGASVKMSCKASGYTFTDYFIHWVKQRPGQGLEWIGWIFPGDDTTDYNEKFRGKTTLTADKSSSTAYILLSSLTSEDSAMYFCVRSDDFDYWGQGTTLTVSS
VL: QIVLTQSPAIMSASPGEKVTITCSASSSVSYMHWFQQKPGTFPKLWIYSTSNLASGVPTRFSGSGSGTSYSLTISRMEAEDAATYYCQQRTSYPPTFGSGTKLEIK
In the case of B1, the “Expression (geometric mean fluorescence intensity)” value [1] is reported as 37, the “Expression (geometric mean fluorescence intensity)” value [2] is reported as 3727 and the “Expression (geometric mean fluorescence intensity)” value [3] is reported as 13. The “Expression (geometric mean fluorescence intensity)” value [4] was 2, the “Expression (geometric mean fluorescence intensity)” value [5] was 285 and the “Expression (geometric mean fluorescence intensity)” value [6] was 33. The “Expression (geometric mean fluorescence intensity)” value [7] was 111, the “Expression (geometric mean fluorescence intensity)” value [8] was 29 and the “Expression (geometric mean fluorescence intensity)” value [9] was 21. For the same molecule, the “Expression (geometric mean fluorescence intensity)” value [10] was 509, the “Expression (geometric mean fluorescence intensity)” value [11] was 340 and the “Expression (geometric mean fluorescence intensity)” value (HLA class I on YN cells) was 804. The “HLA expression level, geometric mean fluorescence intensity (GeoMFI)” value (“HLA expression level” below) (HLA-A on lymphocytes) was 91±44, the “HLA expression level” value (HLA-A on myeloid cells) was 201±209 and the “HLA expression level” value (HLA-A on myeloma cells) was 1309±1130.
